{
  "source": "patent US20230340152A1",
  "about": "(published 2023)",
  "key": {"[1]": {"target": "T1, Human CD73 K180A, His-tagged (human, UniProt P21589 27-549)", "T1 sequence": "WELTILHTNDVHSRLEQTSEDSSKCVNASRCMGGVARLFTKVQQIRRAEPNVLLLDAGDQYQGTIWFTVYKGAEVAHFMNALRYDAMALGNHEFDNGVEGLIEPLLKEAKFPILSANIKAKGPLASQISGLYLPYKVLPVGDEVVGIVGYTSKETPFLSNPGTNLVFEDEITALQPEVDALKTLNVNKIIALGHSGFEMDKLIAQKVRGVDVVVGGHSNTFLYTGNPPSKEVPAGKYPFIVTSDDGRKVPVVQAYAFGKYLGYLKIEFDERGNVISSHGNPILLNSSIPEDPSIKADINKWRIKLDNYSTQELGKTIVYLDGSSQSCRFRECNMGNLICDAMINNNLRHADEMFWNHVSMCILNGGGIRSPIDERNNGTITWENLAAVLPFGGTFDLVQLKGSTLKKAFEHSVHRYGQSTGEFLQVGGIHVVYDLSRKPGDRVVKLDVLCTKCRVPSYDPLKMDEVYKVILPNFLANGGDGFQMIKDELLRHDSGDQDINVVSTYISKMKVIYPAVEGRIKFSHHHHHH", "experiment": "SPR (ProteOn), CD73 variant immobilized on HTG chip", "experimental": "(§1) Binding of MEDI9447 to wild-type and mutant CD73 proteins was measured by surface plasmon resonance (SPR) using a ProteOn instrument (BioRad). CD73 crude cell supernatant protein samples were diluted to 3 µg/ml in PBS, 0.005% Tween-20, pH 7.4 (BioRad) and immobilized to ~400 RU on a HTG tris-NTA sensor chip (BioRad) pre-activated with 10 mM NiSO₄, 10 mM MES, pH 6.0 (BioRad). An equivalently diluted crude cell supernatant sample from non-transfected cells was included as a reference channel control. Sensorgrams were recorded by flowing two-fold dilutions of MEDI9447 prepared in PBS, 0.005% Tween-20, pH 7.4, ranging from 5 nM to 0.31 nM. […] Antibody binding was measured at a flow rate of 100 µL/min with a 3 min association phase and 20 min dissociation phase. The sensor chip surface was regenerated between each run by an 800 s injection of 300 mM EDTA, pH 8.5 (BioRad) at a flow rate of 30 µL/min. Binding kinetics were analyzed using the ProteOn data analysis software. Double referencing was performed and, unless noted otherwise, a 1:1 Langmuir binding model was utilized to fit the data. Some CD73 variants containing mutations within the amino acid region 171-188 fit poorly to a 1:1 model (i.e., Chi² values >10% of Rmax). Where noted, these variants were fit with a heterogenous antigen (2:1) model. […] Due to the assay format (antigen immobilized) and the dimeric state of CD73, KD values may be exaggerated due to avidity effects. However, it is not anticipated that this impacts ranking of MEDI9447 binding to the different CD73 variants."}, "[2]": {"target": "T2, Human CD73 V144K, His-tagged (human, UniProt P21589 27-549)", "T2 sequence": "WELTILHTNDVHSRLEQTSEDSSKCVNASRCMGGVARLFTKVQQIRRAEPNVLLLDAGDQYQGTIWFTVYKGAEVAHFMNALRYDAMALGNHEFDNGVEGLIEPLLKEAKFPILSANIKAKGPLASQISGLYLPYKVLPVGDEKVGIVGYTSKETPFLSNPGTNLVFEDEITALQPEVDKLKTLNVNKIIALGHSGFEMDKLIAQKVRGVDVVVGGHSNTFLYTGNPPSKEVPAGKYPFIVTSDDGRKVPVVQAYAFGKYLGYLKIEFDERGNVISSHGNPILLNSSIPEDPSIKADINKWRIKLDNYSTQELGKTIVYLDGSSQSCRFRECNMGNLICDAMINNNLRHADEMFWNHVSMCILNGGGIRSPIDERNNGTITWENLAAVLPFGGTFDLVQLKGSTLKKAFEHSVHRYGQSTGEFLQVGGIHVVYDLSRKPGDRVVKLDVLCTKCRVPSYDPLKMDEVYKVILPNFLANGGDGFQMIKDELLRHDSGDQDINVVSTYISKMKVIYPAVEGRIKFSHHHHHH", "experiment": "SPR (ProteOn), CD73 variant immobilized on HTG chip", "experimental": "as §1"}, "[3]": {"target": "T3, Human CD73 V144K+K180A, His-tagged (human, UniProt P21589 27-549)", "T3 chain": "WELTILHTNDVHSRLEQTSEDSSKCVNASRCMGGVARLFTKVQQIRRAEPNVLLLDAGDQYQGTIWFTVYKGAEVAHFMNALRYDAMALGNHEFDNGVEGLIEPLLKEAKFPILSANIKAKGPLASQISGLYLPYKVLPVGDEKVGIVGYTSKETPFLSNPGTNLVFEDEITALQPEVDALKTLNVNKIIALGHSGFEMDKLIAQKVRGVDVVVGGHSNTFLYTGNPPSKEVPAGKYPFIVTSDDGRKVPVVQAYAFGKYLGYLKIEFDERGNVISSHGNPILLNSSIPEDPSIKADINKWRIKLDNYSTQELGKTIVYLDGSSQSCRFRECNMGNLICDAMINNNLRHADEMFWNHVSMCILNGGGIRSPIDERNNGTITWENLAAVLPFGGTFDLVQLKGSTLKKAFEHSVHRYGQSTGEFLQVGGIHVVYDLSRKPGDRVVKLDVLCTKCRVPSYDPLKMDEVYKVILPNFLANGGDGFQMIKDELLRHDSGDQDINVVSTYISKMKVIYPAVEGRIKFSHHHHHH", "experiment": "SPR (ProteOn), CD73 variant immobilized on HTG chip", "experimental": "as §1"}, "[4]": {"target": "T4, Cynomolgus CD73 on MK-1 cells (cynomolgus, UniProt A0A2K5V5U7 27-549)", "T4 construct": "whole, on cells; also called MK-1 (cyno)", "T4 sequence": "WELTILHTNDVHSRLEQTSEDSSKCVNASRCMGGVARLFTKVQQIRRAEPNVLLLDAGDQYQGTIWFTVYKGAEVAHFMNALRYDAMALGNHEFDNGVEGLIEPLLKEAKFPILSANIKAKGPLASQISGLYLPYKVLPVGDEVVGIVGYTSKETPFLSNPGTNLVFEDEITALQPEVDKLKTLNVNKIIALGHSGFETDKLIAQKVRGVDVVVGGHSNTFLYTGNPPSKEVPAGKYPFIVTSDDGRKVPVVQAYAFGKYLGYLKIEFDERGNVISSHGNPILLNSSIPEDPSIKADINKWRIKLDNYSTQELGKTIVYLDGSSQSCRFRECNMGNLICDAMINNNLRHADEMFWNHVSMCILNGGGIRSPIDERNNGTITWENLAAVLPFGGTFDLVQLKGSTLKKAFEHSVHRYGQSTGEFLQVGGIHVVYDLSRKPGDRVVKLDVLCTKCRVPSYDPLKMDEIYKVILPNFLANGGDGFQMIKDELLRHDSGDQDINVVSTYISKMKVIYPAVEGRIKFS", "experiment": "flow cytometry on cells"}},
  "data": [
    {"binder": "MEDI9447 (antibody, human IgG1, lambda, V domains shown, Human IgG1-TM (L234F, L235E, P331S), lambda light chain; also called clone 10.3 antibody; 73combo3) VH: EVQLLESGGGLVQPGGSLRLSCAASGFTFSSYAYSWVRQAPGKGLEWVSAISGSGGRTYYADSVKGRFTISRDNSKNTLYLQMNSLRAEDTAVYYCARLGYGRVDEWGRGTLVTVSS VL: QSVLTQPPSASGTPGQRVTISCSGSLSNIGRNPVNWYQQLPGTAPKLLIYLDNLRLSGVPDRFSGSKSGTSASLAISGLQSEDEADYYCATWDDSHPGWTFGGGTKLTVLG", "values": [
      {"measurement": "koff", "setting": "[1]", "result": 0.000154, "unit": "s⁻¹"},
      {"measurement": "kon", "setting": "[1]", "result": "3.45e+06", "unit": "M⁻¹ s⁻¹"},
      {"measurement": "koff", "setting": "[2]", "result": "9.18e-05", "unit": "s⁻¹"},
      {"measurement": "kon", "setting": "[2]", "result": "1.13e+06", "unit": "M⁻¹ s⁻¹"},
      {"measurement": "koff", "setting": "[3]", "result": 0.00425, "unit": "s⁻¹"},
      {"measurement": "kon", "setting": "[3]", "result": "1.58e+06", "unit": "M⁻¹ s⁻¹"},
      {"measurement": "Kd", "setting": "[4]", "result": 84, "unit": "pM"}
    ]}
  ]
}
